Positions count from the first letter of the chain named.
T1: human TL1A extracellular domain with N-terminal HIS and FLAG tag (human, UniProt O95150 72-251)
T1 construct: the whole entry is named
T1 sequence: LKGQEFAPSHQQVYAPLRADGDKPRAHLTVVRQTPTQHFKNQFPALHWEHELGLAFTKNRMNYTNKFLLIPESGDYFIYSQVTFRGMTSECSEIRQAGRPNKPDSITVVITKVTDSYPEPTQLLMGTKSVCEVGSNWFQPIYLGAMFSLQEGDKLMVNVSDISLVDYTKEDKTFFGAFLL

B1: 320-383 (antibody, human IgG1, name in Kabat numbering, V domains shown)
VH: QVQLVQSGAEVKKPGASVKVSCKASGYTFTSYDINWVRQAPGQGLEWMGWLNPNSGNTGYAQKFQGRVTMTADRSTSTAYMELSSLRSEDTAVYYCAREVPETAAFEYWGQGTLVTVSS
VL: QSVLTQPPSVSGAPGQRVTISCTSSSSDIGAGLGVHWYQQLPGTAPKLLIEGYYNRPSGVPDRFSGSKSGTSASLTITGLLPEDEGDYYCQSYDGTLSADFGGGTKLTVLG
notes: human IgG1, lambda
B2: 320-399 (antibody, human IgG1, name in Kabat numbering, V domains shown)
VH: B1 VH with Y27Q
VL: B1 VL with D100L
notes: human IgG1, lambda
B3: 320-393 (antibody, human IgG1, name in Kabat numbering, V domains shown)
VH: B1 VH with G26K
VL: B1 VL with D100L
notes: human IgG1, lambda
B4: 320-411 (antibody, human IgG1, name in Kabat numbering, V domains shown)
VH: B1 VH with T28W
VL: B1 VL with D100L
notes: human IgG1, lambda
B5: 320-401 (antibody, human IgG1, name in Kabat numbering, V domains shown)
VH: B1 VH with Y27H
VL: B1 VL with D100L
notes: human IgG1, lambda
B6: 320-388 (antibody, human IgG1, name in Kabat numbering, V domains shown)
VH: B1 VH with G26A
VL: B1 VL with D100L
notes: human IgG1, lambda
B7: 320-404 (antibody, human IgG1, name in Kabat numbering, V domains shown)
VH: B1 VH with T28A
VL: B1 VL with D100L
notes: human IgG1, lambda
B8: 320-406 (antibody, human IgG1, name in Kabat numbering, V domains shown)
VH: B1 VH with T28Q
VL: B1 VL with D100L
notes: human IgG1, lambda
B9: 320-395 (antibody, human IgG1, name in Kabat numbering, V domains shown)
VH: B1 VH with G26W
VL: B1 VL with D100L
notes: human IgG1, lambda
B10: 320-409 (antibody, human IgG1, name in Kabat numbering, V domains shown)
VH: B1 VH with T28K
VL: B1 VL with D100L
notes: human IgG1, lambda
B11: 320-414 (antibody, human IgG1, name in Kabat numbering, V domains shown)
VH: B1 VH with F29S
VL: B1 VL with D100L
notes: human IgG1, lambda
B12: 320-387 (antibody, human IgG1, name in Kabat numbering, V domains shown)
VH: B1 VH
VL: B1 VL with D100Y
notes: human IgG1, lambda
B13: 320-397 (antibody, human IgG1, name in Kabat numbering, V domains shown)
VH: B1 VH with Y27A
VL: B1 VL with D100L
notes: human IgG1, lambda
B14: 320-392 (antibody, human IgG1, name in Kabat numbering, V domains shown)
VH: B1 VH with G26H
VL: B1 VL with D100L
notes: human IgG1, lambda
B15: 320-390 (antibody, human IgG1, name in Kabat numbering, V domains shown)
VH: B1 VH with G26Q
VL: B1 VL with D100L
notes: human IgG1, lambda
B16: 320-412 (antibody, human IgG1, name in Kabat numbering, V domains shown)
VH: B1 VH with T28Y
VL: B1 VL with D100L
notes: human IgG1, lambda
B17: 320-402 (antibody, human IgG1, name in Kabat numbering, V domains shown)
VH: B1 VH with Y27L
VL: B1 VL with D100L
notes: human IgG1, lambda
B18: 320-391 (antibody, human IgG1, name in Kabat numbering, V domains shown)
VH: B1 VH with G26D
VL: B1 VL with D100L
notes: human IgG1, lambda
B19: 320-413 (antibody, human IgG1, name in Kabat numbering, V domains shown)
VH: B1 VH with F29A
VL: B1 VL with D100L
notes: human IgG1, lambda
B20: 320-403 (antibody, human IgG1, name in Kabat numbering, V domains shown)
VH: B1 VH with Y27W
VL: B1 VL with D100L
notes: human IgG1, lambda
B21: 320-410 (antibody, human IgG1, name in Kabat numbering, V domains shown)
VH: B1 VH with T28L
VL: B1 VL with D100L
notes: human IgG1, lambda
B22: 320-394 (antibody, human IgG1, name in Kabat numbering, V domains shown)
VH: B1 VH with G26L
VL: B1 VL with D100L
notes: human IgG1, lambda
B23: 320-384 (antibody, human IgG1, name in Kabat numbering, V domains shown)
VH: B1 VH
VL: B1 VL with D100H
notes: human IgG1, lambda
B24: 320-400 (antibody, human IgG1, name in Kabat numbering, V domains shown)
VH: B1 VH with Y27D
VL: B1 VL with D100L
notes: human IgG1, lambda
B25: 320-398 (antibody, human IgG1, name in Kabat numbering, V domains shown)
VH: B1 VH with Y27S
VL: B1 VL with D100L
notes: human IgG1, lambda
B26: 320-405 (antibody, human IgG1, name in Kabat numbering, V domains shown)
VH: B1 VH with T28S
VL: B1 VL with D100L
notes: human IgG1, lambda
B27: 320-407 (antibody, human IgG1, name in Kabat numbering, V domains shown)
VH: B1 VH with T28D
VL: B1 VL with D100L
notes: human IgG1, lambda
B28: 320-415 (antibody, human IgG1, name in Kabat numbering, V domains shown)
VH: B1 VH with F29Q
VL: B1 VL with D100L
notes: human IgG1, lambda
B29: 320-389 (antibody, human IgG1, name in Kabat numbering, V domains shown)
VH: B1 VH with G26S
VL: B1 VL with D100L
notes: human IgG1, lambda
B30: 320-408 (antibody, human IgG1, name in Kabat numbering, V domains shown)
VH: B1 VH with T28H
VL: B1 VL with D100L
notes: human IgG1, lambda
B31: 320-396 (antibody, human IgG1, name in Kabat numbering, V domains shown)
VH: B1 VH with G26Y
VL: B1 VL with D100L
notes: human IgG1, lambda

These binders were tested against T1, human TL1A extracellular domain with … (assay: SPR Run 5, Ab from supernatant captured on Protein A, TL1A 5 ug/mL, timepoint 44).
Source text: (§1) 1.5. Antibody expression and antigen binding as determined by SPR. Using a CM5 sensor chip (GE Healthcare) Protein A (Pierce) was coupled to the chip surface using an amine coupling kit (GE Healthcare). Protein A was coupled on flow cell 1 and 2 (or alternatively 3 and 4) using a BIACORE® T200. […] The amount of supernatant or purified protein (as well as the concentration) injected during the capture stage varied between runs and is specified in the header of the Tables 3-11. At the end of injection of the supernatant or purified antibody the change in response units was measured. This value was reported as Capture Level in Tables 3-11. […] The response units were measured prior to the end of the dissociation phase. […] The sensorgrams were double referenced (flow cell 2 is subtracted from flow cell 1 and a buffer blank). As there were a large number of antibody variants to screen, these were screened across different runs (Tables 3-11). […] A summary of the conditions used in each run is below:
(§2) 2.1. […] In some experiment the antibodies were purified using Protein A chromatography (See 1.4) and purified antibodies were used in BIACORE® (GE Healthcare) experiments.

Row | Binder | TL1A Binding Level (Early) [RU]
1 | B1 | 3
2 | B2 | 10
3 | B3 | 12
4 | B4 | 10
5 | B5 | 11
6 | B6 | 14
7 | B7 | 11
8 | B8 | 8
9 | B9 | 13
10 | B10 | 10
11 | B11 | 7
12 | B12 | 11
13 | B13 | 12
14 | B14 | 12
15 | B15 | 12
16 | B16 | 10

Row | Binder | TL1A Binding Level (Early) [RU]
17 | B17 | 11
18 | B18 | 14
19 | B19 | 9
20 | B20 | 11
21 | B21 | 11
22 | B22 | 13
23 | B23 | 3
24 | B24 | 11
25 | B25 | 12
26 | B26 | 10
27 | B27 | 12
28 | B28 | 5
29 | B29 | 12
30 | B30 | 13
31 | B31 | 12

The binders below were run against T1, human TL1A extracellular domain with … (assay: SPR Run 5, Ab from supernatant captured on Protein A, TL1A 5 ug/mL, timepoint 220).
Source text: as §1, §2

Row | Binder | TL1A Binding Level (Late) [RU]
32 | B1 | 1
33 | B2 | 10
34 | B3 | 11
35 | B4 | 9
36 | B5 | 10
37 | B6 | 13
38 | B7 | 10
39 | B8 | 7
40 | B9 | 12
41 | B10 | 10
42 | B11 | 7
43 | B12 | 10
44 | B13 | 12
45 | B14 | 11
46 | B15 | 11
47 | B16 | 9

Row | Binder | TL1A Binding Level (Late) [RU]
48 | B17 | 10
49 | B18 | 13
50 | B19 | 8
51 | B20 | 10
52 | B21 | 10
53 | B22 | 12
54 | B23 | 2
55 | B24 | 11
56 | B25 | 11
57 | B26 | 9
58 | B27 | 11
59 | B28 | 4
60 | B29 | 11
61 | B30 | 12
62 | B31 | 11

— patent US20170081400A1 (CEPHALON, published 2017)
